According to paper PMC7139201 (Developmental cell, 2020):

Biological target: T1, Vps4^E233Q-3xHA (ATP hydrolysis deficient substrate trap mutant) (S. japonicus, UniProt B6K5C2 1-436, E233Q)
T1 sequence (looked up): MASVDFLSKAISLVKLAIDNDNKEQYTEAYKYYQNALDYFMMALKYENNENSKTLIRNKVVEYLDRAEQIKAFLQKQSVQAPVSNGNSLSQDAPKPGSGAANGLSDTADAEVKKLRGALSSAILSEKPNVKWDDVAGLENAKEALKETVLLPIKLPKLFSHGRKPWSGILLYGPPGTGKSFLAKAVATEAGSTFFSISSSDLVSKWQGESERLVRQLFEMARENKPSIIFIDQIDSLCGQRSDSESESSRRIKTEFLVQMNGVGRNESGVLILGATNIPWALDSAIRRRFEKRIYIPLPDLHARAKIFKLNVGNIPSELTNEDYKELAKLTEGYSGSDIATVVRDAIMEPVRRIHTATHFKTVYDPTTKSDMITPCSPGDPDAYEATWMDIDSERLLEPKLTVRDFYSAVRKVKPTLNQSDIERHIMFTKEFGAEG
Test: pull-down

B1: GST-Did4 (natural protein, S. japonicus, UniProt B6K6Y8 1-208, looked up)
chain: MGMFDWIFGKQRSPAEVMRAHQRQLNRAERELDREQLKLDQREKGLIREIKANAKAGNVGAARVQARDLMRLRNSRKRMQNTKTQLQAIGLRLTTVRSSDQMMSSMRSATTLLTRMNRSANLPALTRITQQFERENDMMEQRQDMIDEQFEEGLEDEDEEEADELVDQVLDEIGVSLSQDLPSAAQANTTKADTISSGLNLEDLAHIR
B1: binds.
